This note sets out measurements from patent US20230137351A1.

In the test the target is human beta-Klotho/FGFR1c complex on stable AM-1D cells (human) (UniProt Q86Z14).
Chain of UniProt Q86Z14 (Q86Z14 whole entry, chain 1 of 2): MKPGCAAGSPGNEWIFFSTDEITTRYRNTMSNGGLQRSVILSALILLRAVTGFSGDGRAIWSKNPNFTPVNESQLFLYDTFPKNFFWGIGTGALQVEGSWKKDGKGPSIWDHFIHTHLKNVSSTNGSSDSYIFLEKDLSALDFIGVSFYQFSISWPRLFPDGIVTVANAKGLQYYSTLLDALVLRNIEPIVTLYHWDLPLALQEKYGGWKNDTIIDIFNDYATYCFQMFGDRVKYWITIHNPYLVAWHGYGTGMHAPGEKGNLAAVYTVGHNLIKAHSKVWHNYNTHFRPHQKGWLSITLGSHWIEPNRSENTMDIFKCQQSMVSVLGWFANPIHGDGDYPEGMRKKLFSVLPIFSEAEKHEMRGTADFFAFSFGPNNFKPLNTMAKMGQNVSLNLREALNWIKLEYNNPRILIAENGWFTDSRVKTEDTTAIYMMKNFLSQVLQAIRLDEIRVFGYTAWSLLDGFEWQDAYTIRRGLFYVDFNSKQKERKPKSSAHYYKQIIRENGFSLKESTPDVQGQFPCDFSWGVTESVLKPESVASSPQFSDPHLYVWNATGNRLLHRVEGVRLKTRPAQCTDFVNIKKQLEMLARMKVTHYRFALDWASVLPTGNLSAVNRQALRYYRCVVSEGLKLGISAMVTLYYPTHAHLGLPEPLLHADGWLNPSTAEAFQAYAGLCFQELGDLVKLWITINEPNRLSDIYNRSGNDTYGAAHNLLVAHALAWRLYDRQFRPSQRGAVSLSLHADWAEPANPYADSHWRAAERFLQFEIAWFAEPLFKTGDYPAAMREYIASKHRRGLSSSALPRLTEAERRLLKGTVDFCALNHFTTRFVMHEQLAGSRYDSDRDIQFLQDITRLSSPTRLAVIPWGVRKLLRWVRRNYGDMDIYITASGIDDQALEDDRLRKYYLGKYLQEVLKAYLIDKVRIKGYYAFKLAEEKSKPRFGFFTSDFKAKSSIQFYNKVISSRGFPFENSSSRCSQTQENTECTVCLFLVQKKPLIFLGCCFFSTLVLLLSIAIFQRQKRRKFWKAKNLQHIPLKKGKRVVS
Chain of UniProt Q86Z14 (P11362 22-822, chain 2 of 2, further chain): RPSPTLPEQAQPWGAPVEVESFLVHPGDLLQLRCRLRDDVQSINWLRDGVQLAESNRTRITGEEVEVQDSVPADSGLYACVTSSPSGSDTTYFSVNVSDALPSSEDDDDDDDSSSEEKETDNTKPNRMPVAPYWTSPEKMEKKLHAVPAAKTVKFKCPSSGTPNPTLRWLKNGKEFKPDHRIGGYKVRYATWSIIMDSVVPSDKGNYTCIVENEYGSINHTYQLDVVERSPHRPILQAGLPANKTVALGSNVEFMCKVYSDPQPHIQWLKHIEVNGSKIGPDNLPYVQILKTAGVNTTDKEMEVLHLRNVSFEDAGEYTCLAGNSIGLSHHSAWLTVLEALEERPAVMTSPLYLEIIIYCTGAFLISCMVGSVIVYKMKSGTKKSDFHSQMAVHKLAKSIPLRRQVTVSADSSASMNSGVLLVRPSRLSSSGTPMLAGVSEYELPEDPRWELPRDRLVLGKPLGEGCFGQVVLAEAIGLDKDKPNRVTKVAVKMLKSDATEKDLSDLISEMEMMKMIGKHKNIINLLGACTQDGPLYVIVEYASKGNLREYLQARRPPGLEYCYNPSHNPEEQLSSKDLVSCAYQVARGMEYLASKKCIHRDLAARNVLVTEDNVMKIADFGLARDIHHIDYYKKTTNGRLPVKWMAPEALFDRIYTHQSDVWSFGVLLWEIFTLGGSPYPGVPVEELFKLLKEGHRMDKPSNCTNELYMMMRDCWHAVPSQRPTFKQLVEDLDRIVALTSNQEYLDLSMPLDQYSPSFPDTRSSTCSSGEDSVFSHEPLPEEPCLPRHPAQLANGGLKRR

As for “FGF21 (from UniProt Q9NSA1 29-209) (ligand)”, the adipocyte pERK assay: EC50 (read off the curve) [lower row] worked out at 0.7 nM.
